We go through 10 variants from the supplement of paper PMC11811203.

B1: THAP1; numbered along this chain (parent)
chain: MVQSCSAYGCKNRYDKDKPVSFHKFPLTRPSLCKEWEAAVRRKNFKPTKYSSICSEHFTPDCFKRECNNKLLKENAVPTIFLCTEPHDKKEDLLEPQEQLPPPPLPPPVSQVDAAIGLLMPPLQTPVNLSVFCDHNYTVEDTMHQRKRIHQLEQQVEKLRKKLKTAQQRCRRQERQLEKLKEVVHFQKEKDDVSERGYVILPNDYFEIVEVPA

In the data set the parent is B1. As to the kind of experiment: THAP1 transcriptional activity (GFP+/GFP- enrichment relative to wild-type constructs) (ratio to WT); higher = more THAP1 activity (PSMB5 reporter activation). As to conditions: with PSMB5 promoter-GFP reporter. The method, boiled down:
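Activity values are replicate-mean bright/dim read fold changes divided by the mean of wild-type synonymous constructs. They come from a human THAP1 site-saturation library (residues 2–213, each changed to all 20 amino acids) delivered by lentivirus at MOI ~0.3, in duplicate, into THAP1-knockout HEK-293T cells with mClover3 at endogenous PSMB5. BFP+ cells were sorted into GFP-dim and GFP-bright bins after five days, and variants were counted by Illumina sequencing of genomic DNA amplicons.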
For the variant MVQSCSAYGCKNRYDKDKPVSFHKFPLTRPSLCKEWEAAVRRKNFKPTKYSSICSEHFTPDCFKRECNNKLLKENAVPTIFLCTEPHDKKEDLLEPQEQLPPPPLPPPVSQVDAAIGLLMPPLQTPVNLSVFCDHNYTVEDTMHQRKRIHQLEQQVEKLRKKLKTAQQRCRRQERQLEKLKEVVHFQKEKDDVSERGYVILPNDYFEIVEVPY [A213Y], the THAP1 transcriptional activity amounted to 0.711.
Next, MVQSCSAYGCKNRYDKDKPVSFHKFPLTRPSLCKEWEAAVRRKNFKPTKYSSICSEHFTPDCFKRECNNKLLKENAVPTIFLCTEPHDKKEDLLEPQEQLPPPPLPPPVSQVDAAIGLLMPPLQTPVNLSVFCDHNYTVEDTMHQRKRIHQLEQQVEKLRKKLKTAQQRCRRQERQLEKLKEVVHFQKEKDDVSERGYVILPNDYFEIVEVPW [A213W]: 0.538; MVQSCSAYGCKNRYDKDKPVSFHKFPLTRPSLCKEWEAAVRRKNFKPTKYSSICSEHFTPDCFKRECNNKLLKENAVPTIFLCTEPHDKKEDLLEPQEQLPPPPLPPPVSQVDAAIGLLMPPLQTPVNLSVFCDHNYTVEDTMHQRKRIHQLEQQVEKLRKKLKTAQQRCRRQERQLEKLKEVVHFQKEKDDVSERGYVILPNDYFEIVEVPL [A213L]: 0.907; MVQSCSAYGCKNRYDKDKPVSFHKFPLTRPSLCKEWEAAVRRKNFKPTKYSSICSEHFTPDCFKRECNNKLLKENAVPTIFLCTEPHDKKEDLLEPQEQLPPPPLPPPVSQVDAAIGLLMPPLQTPVNLSVFCDHNYTVEDTMHQRKRIHQLEQQVEKLRKKLKTAQQRCRRQERQLEKLKEVVHFQKEKDDVSERGYVILPNDYFEIVEVPM [A213M]: 0.984.
Take MVQSCSAYGCKNRYDKDKPVSFHKFPLTRPSLCKEWEAAVRRKNFKPTKYSSICSEHFTPDCFKRECNNKLLKENAVPTIFLCTEPHDKKEDLLEPQEQLPPPPLPPPVSQVDAAIGLLMPPLQTPVNLSVFCDHNYTVEDTMHQRKRIHQLEQQVEKLRKKLKTAQQRCRRQERQLEKLKEVVHFQKEKDDVSERGYVILPNDYFEIVEVPR [A213R]: the THAP1 transcriptional activity was 0.843.
Next, MVQSCSAYGCKNRYDKDKPVSFHKFPLTRPSLCKEWEAAVRRKNFKPTKYSSICSEHFTPDCFKRECNNKLLKENAVPTIFLCTEPHDKKEDLLEPQEQLPPPPLPPPVSQVDAAIGLLMPPLQTPVNLSVFCDHNYTVEDTMHQRKRIHQLEQQVEKLRKKLKTAQQRCRRQERQLEKLKEVVHFQKEKDDVSERGYVILPNDYFEIVEVPV [A213V]: 0.455; MVQSCSAYGCKNRYDKDKPVSFHKFPLTRPSLCKEWEAAVRRKNFKPTKYSSICSEHFTPDCFKRECNNKLLKENAVPTIFLCTEPHDKKEDLLEPQEQLPPPPLPPPVSQVDAAIGLLMPPLQTPVNLSVFCDHNYTVEDTMHQRKRIHQLEQQVEKLRKKLKTAQQRCRRQERQLEKLKEVVHFQKEKDDVSERGYVILPNDYFEIVEVPQ [A213Q]: 1.25; MVQSCSAYGCKNRYDKDKPVSFHKFPLTRPSLCKEWEAAVRRKNFKPTKYSSICSEHFTPDCFKRECNNKLLKENAVPTIFLCTEPHDKKEDLLEPQEQLPPPPLPPPVSQVDAAIGLLMPPLQTPVNLSVFCDHNYTVEDTMHQRKRIHQLEQQVEKLRKKLKTAQQRCRRQERQLEKLKEVVHFQKEKDDVSERGYVILPNDYFEIVEVPI [A213I]: 0.974.
To MVQSCSAYGCKNRYDKDKPVSFHKFPLTRPSLCKEWEAAVRRKNFKPTKYSSICSEHFTPDCFKRECNNKLLKENAVPTIFLCTEPHDKKEDLLEPQEQLPPPPLPPPVSQVDAAIGLLMPPLQTPVNLSVFCDHNYTVEDTMHQRKRIHQLEQQVEKLRKKLKTAQQRCRRQERQLEKLKEVVHFQKEKDDVSERGYVILPNDYFEIVEVPK [A213K] belongs 1.13.
Next, MVQSCSAYGCKNRYDKDKPVSFHKFPLTRPSLCKEWEAAVRRKNFKPTKYSSICSEHFTPDCFKRECNNKLLKENAVPTIFLCTEPHDKKEDLLEPQEQLPPPPLPPPVSQVDAAIGLLMPPLQTPVNLSVFCDHNYTVEDTMHQRKRIHQLEQQVEKLRKKLKTAQQRCRRQERQLEKLKEVVHFQKEKDDVSERGYVILPNDYFEIVEVPN [A213N]: 1.27.
